The values below are quoted from earlier work in PMC6958331.

The target of this data set is hemopexin (Homo sapiens) (UniProt P02790).
Chain of UniProt P02790 (P02790 24-462): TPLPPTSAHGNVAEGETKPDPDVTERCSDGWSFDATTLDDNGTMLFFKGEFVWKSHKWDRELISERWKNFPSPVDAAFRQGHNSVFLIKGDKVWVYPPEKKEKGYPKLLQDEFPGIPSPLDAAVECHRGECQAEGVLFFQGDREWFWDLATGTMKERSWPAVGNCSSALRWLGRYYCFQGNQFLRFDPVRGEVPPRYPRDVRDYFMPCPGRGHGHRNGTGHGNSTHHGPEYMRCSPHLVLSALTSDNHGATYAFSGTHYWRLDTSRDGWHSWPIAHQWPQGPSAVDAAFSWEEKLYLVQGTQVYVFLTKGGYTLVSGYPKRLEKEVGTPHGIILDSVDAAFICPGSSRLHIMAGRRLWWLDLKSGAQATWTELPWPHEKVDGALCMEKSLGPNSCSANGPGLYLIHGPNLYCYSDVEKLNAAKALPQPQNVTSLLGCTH

For the substance LRP1/CD91 (from UniProt Q07954), the Kd was 4 nM.
